Reference: US20240270821A1, “GIP/GLP1/GCG TRI-RECEPTOR AGONISTS AND USES THEREOF” (priority 2023, published 2024)
Numbering of substitutions follows the chain as printed. Marks after values point to notes of the source that are not given here. Blank lines part the entries; values can stand above or below the molecule they belong to. Starred links: 1 amine or outer side, 2 acyl side, 3 side chain; linkers in the order of their positions; H or OH if unused. Non-standard residues stand in square brackets, D forms with d. Groups on a side chain read outwards from the residue. *: point of attachment. C20 diacid = O=C(O)CCCCCCCCCCCCCCCCCCC(=O)*; Phe(4-CN) = N#Cc1ccc(C[C@H](N)C(=O)O)cc1; αMePhe(2-F) = C[C@](N)(Cc1ccccc1F)C(=O)O; γGlu = O=C(O)[C@H](CCC(=O)[*:2])N[*:1]; AEEA = NCCOCCOCC(=O)O; Aib = CC(C)(N)C(=O)O

Experiments:
hGIPR [1] = target: T1, hGIPR (Homo sapiens, UniProt P48546); assay: Functional cAMP activity in the presence of 1% HSA; type: cell-based; conditions: read-out: cAMP Rel EC50, hGIPR
T1 sequence (P48546 22-466): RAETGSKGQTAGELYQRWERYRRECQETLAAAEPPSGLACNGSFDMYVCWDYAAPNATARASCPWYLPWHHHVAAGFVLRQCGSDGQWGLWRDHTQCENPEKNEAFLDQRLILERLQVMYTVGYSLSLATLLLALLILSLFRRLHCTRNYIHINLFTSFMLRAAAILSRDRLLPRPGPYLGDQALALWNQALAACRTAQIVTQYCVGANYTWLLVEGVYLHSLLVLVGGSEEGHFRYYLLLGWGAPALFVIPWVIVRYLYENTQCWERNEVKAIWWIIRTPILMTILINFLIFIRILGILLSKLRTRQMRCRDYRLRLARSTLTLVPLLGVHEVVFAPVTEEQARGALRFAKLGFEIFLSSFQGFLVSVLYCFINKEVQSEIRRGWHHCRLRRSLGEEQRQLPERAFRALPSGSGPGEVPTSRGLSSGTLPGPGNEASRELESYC

hGLP-1R [2] = target: T2, hGLP-1R (Homo sapiens, UniProt P43220); assay: Functional cAMP activity in the presence of 1% HSA; type: cell-based; conditions: read-out: cAMP Rel EC50, hGLP-1R
Target sequence in this assay (P43220 24-463): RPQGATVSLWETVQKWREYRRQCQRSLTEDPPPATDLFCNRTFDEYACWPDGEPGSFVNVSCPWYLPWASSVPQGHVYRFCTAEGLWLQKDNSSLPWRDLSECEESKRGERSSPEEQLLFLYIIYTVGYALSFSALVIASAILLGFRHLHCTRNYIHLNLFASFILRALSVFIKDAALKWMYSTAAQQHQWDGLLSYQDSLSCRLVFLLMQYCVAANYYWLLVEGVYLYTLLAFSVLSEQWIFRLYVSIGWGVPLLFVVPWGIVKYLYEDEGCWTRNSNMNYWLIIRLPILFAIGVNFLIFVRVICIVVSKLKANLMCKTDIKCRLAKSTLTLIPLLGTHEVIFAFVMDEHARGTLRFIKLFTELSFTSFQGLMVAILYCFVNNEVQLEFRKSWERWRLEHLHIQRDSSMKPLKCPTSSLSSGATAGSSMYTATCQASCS

human GcgR = human GcgR (Homo sapiens, UniProt P47871); assay: Functional cAMP activity in the presence of 1% HSA; type: cell-based; conditions: read-out: cAMP Rel EC50, hGcgR
Sequence of human GcgR (P47871 26-477): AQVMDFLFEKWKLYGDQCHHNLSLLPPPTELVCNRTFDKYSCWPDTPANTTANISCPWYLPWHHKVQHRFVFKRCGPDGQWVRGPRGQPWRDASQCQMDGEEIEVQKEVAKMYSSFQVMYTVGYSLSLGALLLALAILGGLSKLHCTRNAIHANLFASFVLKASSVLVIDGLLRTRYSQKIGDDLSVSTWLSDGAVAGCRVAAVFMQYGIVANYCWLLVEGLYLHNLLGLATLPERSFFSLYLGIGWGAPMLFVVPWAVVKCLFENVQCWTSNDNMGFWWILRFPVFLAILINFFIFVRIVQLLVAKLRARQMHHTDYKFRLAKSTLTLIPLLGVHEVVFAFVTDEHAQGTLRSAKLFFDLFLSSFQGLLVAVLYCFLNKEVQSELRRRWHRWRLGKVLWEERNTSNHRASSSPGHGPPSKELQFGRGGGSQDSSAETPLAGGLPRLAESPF

hGIPR [3] = target: T1, hGIPR; assay: Functional cAMP activation in the presence of 0.1% casein (no HSA); type: cell-based; conditions: in the presence of 0.1% casein (no HSA); geometric mean; read-out: Relative cAMP EC50, hGIPR;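 for Relative cAMP EC50, hGIPR: intracellular cAMP rise after 30 min at 37 °C read by HTRF against a standard curve, scaled between buffer alone (0%) and top control ligand concentration (100%), four-parameter fit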;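 for Relative cAMP EC50, hGLP-1R: intracellular cAMP rise after 30 min at 37 °C read by HTRF, normalized between buffer only (0%) and maximal control ligand (100%), four-parameter variable-slope fit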;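 for Relative cAMP EC50, hGcgR: intracellular cAMP rise after 30 min at 37 °C, read by HTRF against a cAMP standard curve, scaled from buffer only (0%) to maximal control ligand response (100%)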
hGLP-1R [4] = target: T2, hGLP-1R; assay: as above; type: cell-based; conditions: in the presence of 0.1% casein (no HSA); geometric mean; read-out: Relative cAMP EC50, hGLP-1R
Target sequence in this assay (P43220 24-463): as the sequence (P43220 24-463) above

hGcgR = hGcgR (Homo sapiens, UniProt P47871); assay: as above; type: cell-based; conditions: in the presence of 0.1% casein (no HSA); geometric mean; read-out: Relative cAMP EC50, hGcgR
Sequence of hGcgR (P47871 26-477): as the sequence (P47871 26-477) above

[5] = Pharmacokinetics in male Sprague Dawley rats, single subcutaneous administration; conditions: rat, in vivo, sc, 10 nmol/kg
[6] = Body weight in diet-induced obese C57BL/6 mice; type: in vivo; conditions: 10 nmol/kg SC Q3D, 14 days, percent of starting weight, DIO mice, mean ± SEM n=5
Outline: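 Daily weighing gave body weight as percent of starting value (mean±SEM, n=5) over 9-16 days of SC dosing, once daily or every 3 days, shortly before lights-off. Animals were weight-randomized male C57BL/6 DIO mice, 41-50 g, fed ad libitum on a calorie-rich diet.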

human GLP1-R = human GLP1-R (Homo sapiens, UniProt P43220); assay: GLP1-R internalization assay in HEK293 cells; type: cell-based
Sequence of human GLP1-R (P43220 24-463): as the sequence (P43220 24-463) above

hGLP-1R [7] = target: T2, hGLP-1R; assay: GLP-1R CHO cell β-arrestin recruitment assay; type: cell-based; design: host or cells: CHO-K1 (PathHunter, assay-ready frozen cells);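 note: luminescence read after 90 min peptide exposure at 37 °C and a further 60 min with detection reagent at room temperature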
Target sequence in this assay (P43220 24-463): as above
Target sequence in this assay (P32121 whole entry partner): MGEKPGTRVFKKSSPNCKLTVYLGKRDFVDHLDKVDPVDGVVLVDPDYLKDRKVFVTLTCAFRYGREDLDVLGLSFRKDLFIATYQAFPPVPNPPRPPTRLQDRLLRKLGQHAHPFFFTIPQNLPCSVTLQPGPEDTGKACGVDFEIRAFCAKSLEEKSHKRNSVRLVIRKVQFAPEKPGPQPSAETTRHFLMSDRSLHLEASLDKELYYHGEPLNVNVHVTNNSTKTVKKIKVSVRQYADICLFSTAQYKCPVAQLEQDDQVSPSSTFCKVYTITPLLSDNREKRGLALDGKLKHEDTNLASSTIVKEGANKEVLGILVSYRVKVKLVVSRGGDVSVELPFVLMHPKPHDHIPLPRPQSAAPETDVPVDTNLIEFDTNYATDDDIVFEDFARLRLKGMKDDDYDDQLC

hGLP-1R [8] = target: T2, hGLP-1R; assay: cell-based or functional assay
Target sequence in this assay (P43220 24-463): as the sequence (P43220 24-463) above

[9] = target: T3, human GIP receptor (hGIPR) (human) (UniProt P48546); assay: cell-based or functional assay
T3 sequence (looked up): T1 sequence (P48546 22-466)

[10] = target: T4, human GIP receptor (human) (UniProt P48546); assay: cell-based or functional assay
T4 sequence (looked up): T1 sequence (P48546 22-466)

[11] = target: human GLP-1 receptor (hGLP-1R) (human) (UniProt P43220); assay: cell-based or functional assay
Sequence of human GLP-1 receptor (hGLP-1R) (human) (P43220 24-463): as above

[12] = target: human GLP-1R (SNAP-GLP-1R expressed in HEK293 cells) (human) (UniProt P43220); assay: cell-based or functional assay
Sequence of human GLP-1R (SNAP-GLP-1R expressed in HEK293 cells) (human) (P43220 24-463): as above

[13] = target: human glucagon receptor (hGcgR) (human) (UniProt P47871); assay: cell-based or functional assay
Sequence of human glucagon receptor (hGcgR) (human) (P47871 26-477): as the sequence (P47871 26-477) above

[14] = target: human glucagon receptor (human) (UniProt P47871); assay: cell-based or functional assay
Sequence of human glucagon receptor (human) (P47871 26-477): as above

Molecule: H-Y[Aib]QGT[αMePhe(2-F)]TSD[Phe(4-CN)]SILLDKQAQK([AEEA-AEEA-γGlu-C20 diacid])AFIEYLLEGGPSSGEPPPSEG-NH2 [Example 321]
EC50 (hGIPR [1]): 13 nM | EC50 (hGLP-1R [2]): 110 nM | EC50 (human GcgR): 836 nM | EC50 (hGIPR [3]): 0.0912 nM | EC50 (hGLP-1R [4]): 0.798 nM | EC50 (hGcgR): 4.49 nM | CL/F [5]: 0.137 mL/min/kg | half-life [5]: 26.2 h | Body weight (%) [6]: 87.14 +/− 0.59*** % | EC50 (human GLP1-R; HEK293 cells expressing SNAP-GLP-1R, read-out: GLP1R Internalization EC50): 27.1 nM | Internalization % TOP (human GLP1-R; normalized to maximum concentration of GLP-1 (100%)): 92.8% | EC50 (hGLP-1R [7]; CHO-K1 PathHunter, β-arrestin-2, 0.1% casein, read-out: hGLP1R β-arrestin Rel EC50): 8.78 nM | % Stimulation Max (hGLP-1R [7]; normalized to GLP-1(7-36) as maximum control): 90.1%

B1: Example 548 (peptide)
chain: YXQGTXTSDXXILLDXKAQXXFIEYLIEGGPSSGEPPPSGTGE
modifications: synthetic construct; SITE 2: note = 2-Aminoisobutyric Acid; SITE 6: note = alpha-methyl-2-fluoro-L-phenylalanine; SITE 10: note = 3-(4-Pyridyl)-L-alanine; SITE 11: note = alpha-methyl-L-serine; SITE 16: note = L-ornithine; SITE 17: note = Lysine is chemically modified through conjugation of the epsi
cAMP Rel EC50, nM (presence of 1% HSA) (hGLP-1R [8]): 38 nM | Relative cAMP EC50 [9]: 0.0547 nM | cAMP Rel EC50, nM (presence of 1% HSA) [10]: 3.48 nM | Relative cAMP EC50 [11]: 0.478 nM | GLP1R Internalization EC50 [12]: 17.8 nM | Internalization % TOP [12]: 109% | Relative cAMP EC50 [13]: 3.94 nM | cAMP Rel EC50, nM (presence of 1% HSA) [14]: 295 nM

The next lines start with the values.

cAMP Rel EC50, nM (presence of 1% HSA) (hGLP-1R [8]): 71 nM | Relative cAMP EC50 [9]: 0.0692 nM | cAMP Rel EC50, nM (presence of 1% HSA) [10]: 12.3 nM | Relative cAMP EC50 [11]: 0.542 nM | Relative cAMP EC50 [13]: 6.32 nM | cAMP Rel EC50, nM (presence of 1% HSA) [14]: 1250 nM
B2: Example 583 (peptide)
chain: B1 chain with X11S, X21A, I27Q, G42E
modifications: acylated lysine (γ-Glu)2 C18 diacid; non-natural residues; C-terminal amide; synthetic construct; SITE 2: note = 2-Aminoisobutyric Acid; SITE 6: note = alpha-methyl-2-fluoro-L-phenylalanine; SITE 10: note = 3-(4-Pyridyl)-L-alanine; SITE 16: note = L-ornithine; SITE 17: note = Lysine is chemically modified through conjugation of the epsilon-amino group of the Lysine side chai

cAMP Rel EC50, nM (presence of 1% HSA) (hGLP-1R [8]): 67.3 nM | Relative cAMP EC50 [9]: 0.0171 nM | cAMP Rel EC50, nM (presence of 1% HSA) [10]: 3.79 nM | Relative cAMP EC50 [11]: 0.252 nM | Relative cAMP EC50 [13]: 2.36 nM | cAMP Rel EC50, nM (presence of 1% HSA) [14]: 679 nM
B3: Example 579 (peptide)
chain: YXQGTXTSDXSILLDKKAQXAFIEWLQEGGPSSGEPPPSGTEE
modifications: non-natural residues; lysine acylated with C18 diacid; C-terminal amide; synthetic construct; SITE 2: note = 2-Aminoisobutyric Acid; SITE 6: note = alpha-methyl-2-fluoro-L-phenylalanine; SITE 10: note = 3-(4-Pyridyl)-L-alanine; SITE 17: note = Lysine is chemically modified through conjugation of the epsilon-amino group of the Lysine side chain with (gamma-Glu)2-CO-(CH2)1
